Test results reported in the Human Domainome abundance scans (Beltran et al. 2025).
± gives the uncertainty stated by the source.

B1: Transcription elongation factor A N-terminal and central domain-containing protein, residues 30 to 77; numbered along this chain, Q8N8B7 (parent)
chain: LTELETIYVTKEHLQETDVVRAVYRVLKNCPSVALKKKAKCLLSKWKA

Variants of: B1
Experiment: abundance fitness (aPCA) (normalised: wild type 0, dead -1); higher = more abundant; growth selection in yeast, the domain comes from the species named
Details: Homo sapiens

Variant	abundance fitness
LTELETIYVTKEHLQETDLVRAVYRVLKNCPSVALKKKAKCLLSKWKA [V19L]	-0.121 ± 0.092
LTELETIYVTKEHLQETDSVRAVYRVLKNCPSVALKKKAKCLLSKWKA [V19S]	-0.481 ± 0.1
LTELETIYVTKEHLQETDEVRAVYRVLKNCPSVALKKKAKCLLSKWKA [V19E]	-0.618 ± 0.2
LTELETIYVTKEHLQETDHVRAVYRVLKNCPSVALKKKAKCLLSKWKA [V19H]	-0.454 ± 0.18
LTELETIYVTKEHLQETDNVRAVYRVLKNCPSVALKKKAKCLLSKWKA [V19N]	-0.695 ± 0.43
LTELETIYVTKEHLQETDIVRAVYRVLKNCPSVALKKKAKCLLSKWKA [V19I]	-0.133 ± 0.16
LTELETIYVTKEHLQETDYVRAVYRVLKNCPSVALKKKAKCLLSKWKA [V19Y]	-0.595 ± 0.21
LTELETIYVTKEHLQETDDVRAVYRVLKNCPSVALKKKAKCLLSKWKA [V19D]	-0.72 ± 0.38
LTELETIYVTKEHLQETDTVRAVYRVLKNCPSVALKKKAKCLLSKWKA [V19T]	-0.347 ± 0.12
LTELETIYVTKEHLQETDKVRAVYRVLKNCPSVALKKKAKCLLSKWKA [V19K]	-0.39 ± 0.14
LTELETIYVTKEHLQETDQVRAVYRVLKNCPSVALKKKAKCLLSKWKA [V19Q]	-0.464 ± 0.21
LTELETIYVTKEHLQETDWVRAVYRVLKNCPSVALKKKAKCLLSKWKA [V19W]	-0.01 ± 0.15
LTELETIYVTKEHLQETDMVRAVYRVLKNCPSVALKKKAKCLLSKWKA [V19M]	0.037 ± 0.14
LTELETIYVTKEHLQETDFVRAVYRVLKNCPSVALKKKAKCLLSKWKA [V19F]	-0.362 ± 0.18
LTELETIYVTKEHLQETDPVRAVYRVLKNCPSVALKKKAKCLLSKWKA [V19P]	-0.261 ± 0.13
LTELETIYVTKEHLQETDGVRAVYRVLKNCPSVALKKKAKCLLSKWKA [V19G]	-0.094 ± 0.082
LTELETIYVTKEHLQETDRVRAVYRVLKNCPSVALKKKAKCLLSKWKA [V19R]	0.037 ± 0.09
LTELETIYVTKEHLQETDVVAAVYRVLKNCPSVALKKKAKCLLSKWKA [R21A]	-0.457 ± 0.13
LTELETIYVTKEHLQETDVVVAVYRVLKNCPSVALKKKAKCLLSKWKA [R21V]	-0.904 ± 0.15
LTELETIYVTKEHLQETDVVKAVYRVLKNCPSVALKKKAKCLLSKWKA [R21K]	-0.246 ± 0.16
LTELETIYVTKEHLQETDVVTAVYRVLKNCPSVALKKKAKCLLSKWKA [R21T]	-0.413 ± 0.15
LTELETIYVTKEHLQETDVVLAVYRVLKNCPSVALKKKAKCLLSKWKA [R21L]	-0.88 ± 0.12
LTELETIYVTKEHLQETDVVIAVYRVLKNCPSVALKKKAKCLLSKWKA [R21I]	-1.03 ± 0.3
LTELETIYVTKEHLQETDVVWAVYRVLKNCPSVALKKKAKCLLSKWKA [R21W]	-0.549 ± 0.14
LTELETIYVTKEHLQETDVVCAVYRVLKNCPSVALKKKAKCLLSKWKA [R21C]	-0.468 ± 0.13
LTELETIYVTKEHLQETDVVPAVYRVLKNCPSVALKKKAKCLLSKWKA [R21P]	-0.514 ± 0.15
LTELETIYVTKEHLQETDVVMAVYRVLKNCPSVALKKKAKCLLSKWKA [R21M]	-0.333 ± 0.41

Variant	abundance fitness
LTELETIYVTKEHLQETDVVDAVYRVLKNCPSVALKKKAKCLLSKWKA [R21D]	-0.759 ± 0.27
LTELETIYVTKEHLQETDVVHAVYRVLKNCPSVALKKKAKCLLSKWKA [R21H]	-0.067 ± 0.16
LTELETIYVTKEHLQETDVVNAVYRVLKNCPSVALKKKAKCLLSKWKA [R21N]	-0.113 ± 0.15
LTELETIYVTKEHLQETDVVFAVYRVLKNCPSVALKKKAKCLLSKWKA [R21F]	-0.914 ± 0.42
LTELETIYVTKEHLQETDVVYAVYRVLKNCPSVALKKKAKCLLSKWKA [R21Y]	-0.601 ± 0.28
LTELETIYVTKEHLQETDVVGAVYRVLKNCPSVALKKKAKCLLSKWKA [R21G]	-0.042 ± 0.076
LTELETIYVTKEHLQETDVVEAVYRVLKNCPSVALKKKAKCLLSKWKA [R21E]	-0.647 ± 0.3
LTELETIYVTKEHLQETDVVRAVFRVLKNCPSVALKKKAKCLLSKWKA [Y24F]	0.172 ± 0.13
LTELETIYVTKEHLQETDVVRAVLRVLKNCPSVALKKKAKCLLSKWKA [Y24L]	0.205 ± 0.076
LTELETIYVTKEHLQETDVVRAVGRVLKNCPSVALKKKAKCLLSKWKA [Y24G]	-0.345 ± 0.068
LTELETIYVTKEHLQETDVVRAVQRVLKNCPSVALKKKAKCLLSKWKA [Y24Q]	-0.223 ± 0.11
LTELETIYVTKEHLQETDVVRAVRRVLKNCPSVALKKKAKCLLSKWKA [Y24R]	0.277 ± 0.066
LTELETIYVTKEHLQETDVVRAVARVLKNCPSVALKKKAKCLLSKWKA [Y24A]	0.019 ± 0.078
LTELETIYVTKEHLQETDVVRAVCRVLKNCPSVALKKKAKCLLSKWKA [Y24C]	-0.003 ± 0.1
LTELETIYVTKEHLQETDVVRAVNRVLKNCPSVALKKKAKCLLSKWKA [Y24N]	-0.362 ± 0.15
LTELETIYVTKEHLQETDVVRAVVRVLKNCPSVALKKKAKCLLSKWKA [Y24V]	0.11 ± 0.07
LTELETIYVTKEHLQETDVVRAVIRVLKNCPSVALKKKAKCLLSKWKA [Y24I]	0.105 ± 0.11
LTELETIYVTKEHLQETDVVRAVWRVLKNCPSVALKKKAKCLLSKWKA [Y24W]	0.406 ± 0.087
LTELETIYVTKEHLQETDVVRAVPRVLKNCPSVALKKKAKCLLSKWKA [Y24P]	-0.72 ± 0.17
LTELETIYVTKEHLQETDVVRAVDRVLKNCPSVALKKKAKCLLSKWKA [Y24D]	-0.217 ± 0.099
LTELETIYVTKEHLQETDVVRAVMRVLKNCPSVALKKKAKCLLSKWKA [Y24M]	0.315 ± 0.075
LTELETIYVTKEHLQETDVVRAVHRVLKNCPSVALKKKAKCLLSKWKA [Y24H]	-0.468 ± 0.16
LTELETIYVTKEHLQETDVVRAVKRVLKNCPSVALKKKAKCLLSKWKA [Y24K]	0.219 ± 0.095
LTELETIYVTKEHLQETDVVRAHYRVLKNCPSVALKKKAKCLLSKWKA [V23H]	-0.81 ± 0.21
LTELETIYVTKEHLQETDVVRATYRVLKNCPSVALKKKAKCLLSKWKA [V23T]	-0.122 ± 0.11
LTELETIYVTKEHLQETDVVRAGYRVLKNCPSVALKKKAKCLLSKWKA [V23G]	-0.72 ± 0.08
LTELETIYVTKEHLQETDVVRARYRVLKNCPSVALKKKAKCLLSKWKA [V23R]	-0.426 ± 0.073
